Measurements from patent US20230272055A1 (Incyte, published 2023).
Numbering of substitutions follows the chain as printed. In names and notes the source's numbering stands.

B1: anti-mutCALR antibody clone 134 (antibody, human IgG1, lambda, N297A)
heavy: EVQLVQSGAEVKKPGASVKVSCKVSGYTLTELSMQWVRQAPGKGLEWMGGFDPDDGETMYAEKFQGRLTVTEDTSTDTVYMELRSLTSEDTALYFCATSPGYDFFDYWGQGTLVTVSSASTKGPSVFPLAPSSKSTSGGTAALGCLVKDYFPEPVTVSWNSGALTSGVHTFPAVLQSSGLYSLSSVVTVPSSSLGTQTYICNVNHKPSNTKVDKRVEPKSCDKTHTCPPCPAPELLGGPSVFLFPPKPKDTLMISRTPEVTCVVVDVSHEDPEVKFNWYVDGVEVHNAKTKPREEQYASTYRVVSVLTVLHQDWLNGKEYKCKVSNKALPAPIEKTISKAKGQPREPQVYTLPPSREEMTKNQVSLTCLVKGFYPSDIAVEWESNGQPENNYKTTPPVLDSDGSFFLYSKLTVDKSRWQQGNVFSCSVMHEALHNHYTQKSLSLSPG
light: SYVLTQPPSVSVAPGKTARITCGGDNIGSKSVHWYQQKPGQAPVLVVYDDSDRPSGIPERFSGSNSGNTATLTISRVEAGDEADYYCQVWDSSNDLLIFGGGTKLTVLGQPKAAPSVTLFPPSSEELQANKATLVCLISDFYPGAVTVAWKADSSPVKAGVETTTPSKQSNNKYAASSYLSLTPEQWKSHRSYSCQVTHEGSTVEKTVAPTECS
notes: human IgG1 N297A variant of clone 15
B2: anti-mutCALR antibody clone 137 (antibody, human IgG1, lambda, N297A, V domains shown)
VH: EVQLVQSGAEVKKPGASVKVSCKVSGYTLTELSMQWVRQAPGKGLEWMGGFDPDEGETMYAEKFQGRLTVTEDTSTDTVYMELRSLTSEDTALYFCATSPGYDFFDYWGQGTLVTVSS
VL: SYVLTQPPSVSVAPGKTARITCGGDNIGSKSVHWYQQKPGQAPVLVVYDDSDRPSGIPERFSGSNSGNTATLTISRVEAGDEADYYCQVWDSSNDLLIFGGGTKLTVLG
notes: as for B1
B3: anti-mutCALR antibody clone 142 (antibody, human IgG1, lambda, N297A, V domains shown)
VH: B2 VH with R84S, T87R, L93V
VL: B2 VL
notes: as for B1
B4: anti-mutCALR antibody clone 138 (antibody, human IgG1, lambda, N297A, V domains shown)
VH: B2 VH with E55D, G56A
VL: B2 VL
notes: as for B1
B5: anti-mutCALR antibody clone 143 (antibody, human IgG1, lambda, N297A, V domains shown)
VH: B2 VH with E55D, G56A, R84S, T87R, L93V
VL: B2 VL
notes: as for B1
B6: anti-mutCALR antibody clone 139 (antibody, human IgG1, lambda, N297A, V domains shown)
VH: B2 VH with E55D, R84S, T87R, L93V
VL: B2 VL
notes: as for B1
B7: anti-mutCALR antibody clone 170 (antibody, human IgG1, lambda, N297A)
heavy: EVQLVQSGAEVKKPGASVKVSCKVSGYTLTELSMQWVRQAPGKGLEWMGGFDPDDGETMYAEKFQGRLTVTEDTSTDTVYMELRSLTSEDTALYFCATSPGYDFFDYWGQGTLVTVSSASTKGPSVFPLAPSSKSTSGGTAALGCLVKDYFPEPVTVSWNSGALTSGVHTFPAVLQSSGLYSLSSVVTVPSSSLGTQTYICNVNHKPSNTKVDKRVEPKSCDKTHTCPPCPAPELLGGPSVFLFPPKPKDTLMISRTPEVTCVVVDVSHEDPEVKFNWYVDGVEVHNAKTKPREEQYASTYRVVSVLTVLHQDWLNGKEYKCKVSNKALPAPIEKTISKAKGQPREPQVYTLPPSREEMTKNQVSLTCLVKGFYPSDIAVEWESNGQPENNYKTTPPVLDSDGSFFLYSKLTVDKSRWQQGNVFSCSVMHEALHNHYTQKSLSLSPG
light: B1 light with K16Q, D25S, N26D, S29D, K30E, S31I, V77A, E78Q, N94S, L96H
notes: human IgG1 N297A variant of clone 17
B8: anti-mutCALR antibody clone 136 (antibody, human IgG1, lambda, N297A, V domains shown)
VH: B2 VH with E55S
VL: B2 VL
notes: as for B1
B9: anti-mutCALR antibody clone 140 (antibody, human IgG1, lambda, N297A, V domains shown)
VH: B2 VH with E55A, R84S, T87R, L93V
VL: B2 VL
notes: as for B1
B10: anti-mutCALR antibody clone 141 (antibody, human IgG1, lambda, N297A, V domains shown)
VH: B2 VH with E55S, R84S, T87R, L93V
VL: B2 VL
notes: as for B1
B11: anti-mutCALR antibody clone 135 (antibody, human IgG1, lambda, N297A, V domains shown)
VH: B2 VH with E55A
VL: B2 VL
notes: as for B1
B12: anti-mutCALR antibody clone 171 (antibody, human IgG1, lambda, N297A, V domains shown)
VH: B2 VH with E55A
VL: B2 VL with K16Q, D25S, N26D, S29D, K30E, S31I, V77A, E78Q, N94S, L96H
notes: as for B7

Target: T1, Recombinant MBP-mutCALR Type 1 fusion protein (human)
T1 construct: custom made at Cepter; also called recombinant mutCALR protein
Assay: SPR, IgG captured, 1:1 fit, Exp. 2
Experimental: Experiment 2: Recombinant MBP-mutCALR Type 1 fusion protein was custom made at Cepter (cepterbiopartners.com). Data for the interaction of antibodies with recombinant mutCALR protein were collected at 25° C. on a Biacore 8K instrument (Cytiva, Marlborough, Mass.), and all reagents were obtained from Cytiva unless otherwise specified. The experiments were conducted using Tris-buffered saline (pH 7.2), 0.005% Surfactant P20, 1 mM CaCl₂) as running buffer. To prepare the capture surfaces, anti-human IgG (Fc) antibodies (Product #29234600) was amine-coupled onto a CM4 chip (Product #BR100534) under standard conditions using an Amine Coupling Kit (Product #BR100050). […] The kinetics parameters were obtained by applying 1:1 binding model to fit the data from multiple-cycle injection experiments using Biacore Insight Evaluation software.

| Binder | Kd | koff | kon |
| --- | --- | --- | --- |
| B1 | 1.12 nM | 0.00142 s⁻¹ | 1.27e+06 M⁻¹ s⁻¹ |
| B2 | 1.27 nM | 0.0095 s⁻¹ | 7.51e+06 M⁻¹ s⁻¹ |
| B3 | 2.27 nM | 0.00269 s⁻¹ | 1.19e+06 M⁻¹ s⁻¹ |
| B4 | 0.875 nM | 0.00688 s⁻¹ | 7.86e+06 M⁻¹ s⁻¹ |
| B5 | 1.31 nM | 0.00753 s⁻¹ | 5.74e+06 M⁻¹ s⁻¹ |
| B6 | 0.966 nM | 0.000953 s⁻¹ | 987000 M⁻¹ s⁻¹ |
| B7 | 0.419 nM | 0.00179 s⁻¹ | 4.27e+06 M⁻¹ s⁻¹ |
| B8 | 6.7 nM | 0.00507 s⁻¹ | 756000 M⁻¹ s⁻¹ |
| B9 | 7.09 nM | 0.00541 s⁻¹ | 763000 M⁻¹ s⁻¹ |
| B10 | 4.47 nM | 0.0187 s⁻¹ | 4.18e+06 M⁻¹ s⁻¹ |
| B11 | 5.17 nM | 0.00512 s⁻¹ | 991000 M⁻¹ s⁻¹ |
| B12 | 1.65 nM | 0.0109 s⁻¹ | 6.57e+06 M⁻¹ s⁻¹ |
